The text below walks through data of patent publication US20070202544.

Data set [1] has as its target HA-tagged C96Y mutant insulin 2 (UniProt P01326).
Data set [2] concerns the target HA-tagged wild-type insulin 2 (UniProt P01326).

On to HRD1 (from plasmid HRD1-pCMVSPORT6), for which the “ubiquitination of insulin-2 (IP with anti-HA, immunoblot with anti-Flag for Flag-ubiquitin)” value in data set [1] is reported as “did increase that of C96Y insulin-2”; in data set [2], “HRD1 expression did not increase the ubiquitination of wild-type insulin-2”.
